Experimental data from publication PMC3229523, “Identification of Lactoferricin B Intracellular Targets Using an Escherichia coli Proteome Chip” (PLoS ONE, 2011).
Ends that are not written are not given here. * marks the point of attachment. Biotin = O=C1N[C@H]2[C@H](CS[C@H]2CCCCC(=O)*)N1

How the values were obtained:
Assay in all cases: peptide or protein array; E. coli proteome chip: purified His-tagged proteins printed in duplicate on Fullmoon slides, blocked with 1% BSA; 10 nM N-terminal biotinylated LfcinB with 1% BSA, room temperature, 1 h; detected with DyLight 649-labeled streptavidin, ratio to DyLight 549-labeled anti-His antibody; ProCAT normalisation, local cut-off; triplicate chips
Settings in all cases: both partners purified
[1] = molecular target: T1, YfiQ (E. coli K-12, UniProt P76594 1-886)
T1 construct: YfiQ, E. coli K-12
T1 sequence (looked up): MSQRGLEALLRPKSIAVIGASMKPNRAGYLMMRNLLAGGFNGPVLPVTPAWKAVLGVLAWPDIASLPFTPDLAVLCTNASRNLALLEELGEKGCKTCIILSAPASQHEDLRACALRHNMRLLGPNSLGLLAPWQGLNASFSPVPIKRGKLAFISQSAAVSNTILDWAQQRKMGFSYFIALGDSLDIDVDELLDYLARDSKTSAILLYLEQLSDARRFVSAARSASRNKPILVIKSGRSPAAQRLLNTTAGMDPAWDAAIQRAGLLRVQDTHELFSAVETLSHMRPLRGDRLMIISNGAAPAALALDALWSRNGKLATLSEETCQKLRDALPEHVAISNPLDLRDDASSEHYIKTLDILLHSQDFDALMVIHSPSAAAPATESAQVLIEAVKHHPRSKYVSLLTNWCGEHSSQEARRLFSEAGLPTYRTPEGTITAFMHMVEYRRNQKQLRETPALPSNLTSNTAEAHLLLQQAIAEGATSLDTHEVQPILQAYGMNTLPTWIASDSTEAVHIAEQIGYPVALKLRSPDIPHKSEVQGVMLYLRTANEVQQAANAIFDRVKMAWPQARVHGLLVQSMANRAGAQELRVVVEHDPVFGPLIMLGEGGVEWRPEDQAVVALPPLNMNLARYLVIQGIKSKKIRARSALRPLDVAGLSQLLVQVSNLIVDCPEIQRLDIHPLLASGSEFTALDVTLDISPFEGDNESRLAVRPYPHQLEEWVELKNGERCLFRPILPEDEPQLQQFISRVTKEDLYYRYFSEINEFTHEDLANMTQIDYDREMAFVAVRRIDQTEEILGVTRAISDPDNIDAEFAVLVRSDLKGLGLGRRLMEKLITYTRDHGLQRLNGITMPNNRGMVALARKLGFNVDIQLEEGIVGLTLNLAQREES

[2] = molecular target: T2, MdoG (E. coli K-12, UniProt P33136 23-511)
T2 construct: MdoG, E. coli K-12
T2 sequence (looked up): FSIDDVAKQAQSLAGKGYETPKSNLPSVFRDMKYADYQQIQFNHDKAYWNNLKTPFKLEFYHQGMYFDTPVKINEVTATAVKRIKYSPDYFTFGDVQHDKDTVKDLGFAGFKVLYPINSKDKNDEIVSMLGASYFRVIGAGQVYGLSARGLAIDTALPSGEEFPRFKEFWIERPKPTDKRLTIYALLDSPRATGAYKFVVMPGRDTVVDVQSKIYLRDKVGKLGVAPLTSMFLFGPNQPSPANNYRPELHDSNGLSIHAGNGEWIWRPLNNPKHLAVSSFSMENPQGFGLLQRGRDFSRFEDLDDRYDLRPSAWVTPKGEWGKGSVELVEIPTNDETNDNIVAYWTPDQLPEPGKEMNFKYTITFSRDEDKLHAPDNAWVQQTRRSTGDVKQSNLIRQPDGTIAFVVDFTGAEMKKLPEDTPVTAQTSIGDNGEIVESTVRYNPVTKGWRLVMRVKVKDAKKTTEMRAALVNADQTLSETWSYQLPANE

[3] = molecular target: T3, YpdH (E. coli K-12, UniProt P69808 1-108)
T3 construct: YpdH, E. coli K-12
T3 sequence (looked up): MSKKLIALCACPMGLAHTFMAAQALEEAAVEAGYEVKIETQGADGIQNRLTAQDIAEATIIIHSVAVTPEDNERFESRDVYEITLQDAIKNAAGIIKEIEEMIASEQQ

[4] = molecular target: T4, AmiA (E. coli K-12, UniProt P36548 35-289)
T4 construct: AmiA, E. coli K-12
T4 sequence (looked up): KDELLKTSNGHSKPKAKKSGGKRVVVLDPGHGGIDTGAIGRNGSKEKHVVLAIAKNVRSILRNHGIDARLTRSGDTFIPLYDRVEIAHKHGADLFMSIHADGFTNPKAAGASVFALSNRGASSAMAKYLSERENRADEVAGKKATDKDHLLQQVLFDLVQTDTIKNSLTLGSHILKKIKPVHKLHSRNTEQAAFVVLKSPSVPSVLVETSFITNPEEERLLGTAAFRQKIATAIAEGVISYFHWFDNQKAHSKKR

[5] = molecular target: T5, RcsB (E. coli K-12, UniProt P0DMC7 1-216)
T5 construct: RcsB, E. coli K-12
T5 sequence (looked up): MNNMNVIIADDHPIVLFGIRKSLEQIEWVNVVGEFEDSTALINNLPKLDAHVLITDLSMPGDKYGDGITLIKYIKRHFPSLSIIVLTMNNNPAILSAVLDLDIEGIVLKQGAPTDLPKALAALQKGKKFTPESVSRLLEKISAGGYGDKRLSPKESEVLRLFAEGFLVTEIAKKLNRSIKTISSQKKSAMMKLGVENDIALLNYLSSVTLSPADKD

Measured: binding result

B1: N-terminal biotinylated Lactoferricin B (peptide, UniProt P24627 36-60, looked up)
peptide: Biotin-FKCRRWQWRMKKLGAPSITCVRRAF
modifications: ends and bridges not checked
notes: lactoferricin B (LfcinB), cationic antimicrobial peptide of 25 amino acids; also called biotinylated LfcinB; biotin-labeled LfcinB; source: bought: Kelowna Inc
binds: [1] | [2] | [3] | [4] | [5]
